The nature of the data set: self-splicing fitness, log relative to wild type (ln ratio); higher = more splicing; Tetrahymena group I intron in knt gene, E. coli kanamycin selection, DiMSum; sequences stand for … in CUCUCU…GGAGGGAAAAGUUAUCAGGCAUGCACCUGGUAGCUAGUCUUUAAACCAAUAGAUUGCAUCGGUUUAAAAGGCAAGACCGUCAAAUUGCGGGAAAGGGGUCAACAGCCGUUCAGUACCAAGUCUCAGGGGAAACUUUGAGAUGGCCUUGCAAAGGGUAUGGUAAUAAGCUGACGGACAUGGUCCUAACCACGCAGCCAAGUCCUAAGUCAACAGAUCUUCUGUUGAUAUGGAUGCAGUUCACAGACUAAAUGUCGGUCGGGGAAGAUGUAUUCUUCUCAUAAGAUAUAGUCGGACCUCUCCUUAAUGGGAGCUAGCGGAUGAAGUGAUGCAACACUGGAGCCGCUGGGAACUAAUUUGUAUGCGAAAGUAUAUUGAUUAGUUUUGGAGUACUCGUGGUCG
A digest of the protocol: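 The eight P1ex-region nucleotides of an intron in the knt kanamycin-resistance gene on pET-22b(+) were all randomised and the library put into E. coli BL21(DE3). Six replicate transformations were grown overnight at 37°C or 30°C on LB agar with or without 25 μg/mL kanamycin, together with 100 μg/mL carbenicillin, 50 μM IPTG and 0.2% rhamnose. Colonies were pooled and amplicon-sequenced on an Illumina HiSeq 2500. Fitness from DiMSum is the error-weighted combination of wild-type-normalised replicate fold changes, kanamycin over none.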

The values below come from the supplement of paper PMC7877785.

± gives the uncertainty stated by the source.

Turning to GUACAGCAAUAUUACGCACC, the “self-splicing fitness (ln)” value by setting is: (30 °C) -2.67 ± 0.26; (37 °C) -2.35 ± 0.38. Turning to CGAGAGCAAUAUUACGAGCA, the “self-splicing fitness (ln)” value (30 °C) is -1.62 ± 0.34.

For GACCAGCAAUAUUACGUUAU, the “self-splicing fitness (ln)” value (30 °C) was -0.752 ± 0.045 and the “self-splicing fitness (ln)” value (37 °C) was -0.147 ± 0.062. For AAGAAGCAAUAUUACGACAC the same measures were -0.918 ± 0.12 and -0.625 ± 0.14. As to CCGAAGCAAUAUUACGGAUU, the “self-splicing fitness (ln)” value (30 °C) was -2.88 ± 0.27 and the “self-splicing fitness (ln)” value (37 °C) is -3.15 ± 0.35. On the same counts, the results for UGCAAGCAAUAUUACGACCG are 0.118 ± 0.086 and 0.563 ± 0.13. In the case of GGAAAGCAAUAUUACGGUGU, the “self-splicing fitness (ln)” value is, setting by setting: (30 °C) -2.29 ± 0.092; (37 °C) -1.15 ± 0.12. For CGCUAGCAAUAUUACGGAGC the same measures were -2.64 ± 0.2 and -1.84 ± 0.24. On the same counts, the results for GUAAAGCAAUAUUACGUUCA are -0.419 ± 0.072 and 0.177 ± 0.12. For UCCAAGCAAUAUUACGUUCA the same measures were -1.4 ± 0.13 and -0.51 ± 0.11. For AGGGAGCAAUAUUACGUAGU, the “self-splicing fitness (ln)” value is, setting by setting: (30 °C) -3.35 ± 0.23; (37 °C) -2.19 ± 0.35. Turning to CUAUAGCAAUAUUACGAUCG, the “self-splicing fitness (ln)” value was -0.256 ± 0.075 (30 °C) and 0.439 ± 0.1 (37 °C). On the same counts, the results for CAAAAGCAAUAUUACGAGAG are -2.79 ± 0.1 and -2.34 ± 0.11. Turning to UGGGAGCAAUAUUACGUGAG, the “self-splicing fitness (ln)” value (30 °C) was -2.33 ± 0.18 and the “self-splicing fitness (ln)” value (37 °C) was -1.14 ± 0.14. Consider GGAAAGCAAUAUUACGCCAA, for which the “self-splicing fitness (ln)” value (30 °C) is -2.36 ± 0.41 and the “self-splicing fitness (ln)” value (37 °C) is -0.527 ± 0.29. For GCUCAGCAAUAUUACGACUG, the “self-splicing fitness (ln)” value was -2.66 ± 0.35 (30 °C) and 0.178 ± 0.19 (37 °C). For CAGCAGCAAUAUUACGACCA the same measures were -1.88 ± 0.19 and -1.22 ± 0.18. For the sequence AUGCAGCAAUAUUACGAGGU, the “self-splicing fitness (ln)” value is -3.04 ± 0.16 (30 °C) and -2.27 ± 0.13 (37 °C). With GAUGAGCAAUAUUACGUCGG, under “37 °C”, the “self-splicing fitness (ln)” value was -2.87 ± 0.34.

Turning to GUUCAGCAAUAUUACGCUCC, the “self-splicing fitness (ln)” value (30 °C) was -0.282 ± 0.15 and the “self-splicing fitness (ln)” value (37 °C) was -0.544 ± 0.23.

With GUUAAGCAAUAUUACGUUUU, the “self-splicing fitness (ln)” value was -3.11 ± 0.15 (30 °C) and -1.7 ± 0.16 (37 °C).

For CCCCAGCAAUAUUACGUUGC, the “self-splicing fitness (ln)” value is -3.41 ± 0.12 (30 °C) and -2.78 ± 0.17 (37 °C).

With CGACAGCAAUAUUACGCCGC, the “self-splicing fitness (ln)” value (37 °C) was -1.74 ± 0.36.

In the case of UCGCAGCAAUAUUACGAGUG, the “self-splicing fitness (ln)” value is, setting by setting: (30 °C) -1.48 ± 0.088; (37 °C) -0.719 ± 0.1. For ACGCAGCAAUAUUACGCAAA, the “self-splicing fitness (ln)” value (30 °C) is -2.51 ± 0.13 and the “self-splicing fitness (ln)” value (37 °C) is -1.77 ± 0.14.

For CAGCAGCAAUAUUACGCCUU, the “self-splicing fitness (ln)” value by setting is: (30 °C) -0.761 ± 0.097; (37 °C) -0.274 ± 0.1. With GUUGAGCAAUAUUACGCUAC, the “self-splicing fitness (ln)” value (30 °C) was -1.28 ± 0.49. Consider GAAGAGCAAUAUUACGAAUA, for which, for the setting “37 °C”, the “self-splicing fitness (ln)” value was -1.63 ± 0.35. Take UGUGAGCAAUAUUACGUCUA: the “self-splicing fitness (ln)” value is -1.51 ± 0.16 (30 °C) and -1.36 ± 0.15 (37 °C). For UCCUAGCAAUAUUACGUGUG the same measures were -2.41 ± 0.28 and -2.47 ± 0.22.

As to CAGGAGCAAUAUUACGAACU, the “self-splicing fitness (ln)” value by setting is: (30 °C) -3.14 ± 0.34; (37 °C) -3.19 ± 0.32. On the same counts, the results for CAUAAGCAAUAUUACGGGUC are -3.31 ± 0.24 and -2.97 ± 0.28.

As to UAUCAGCAAUAUUACGCGGC, the “self-splicing fitness (ln)” value by setting is: (30 °C) -2.77 ± 0.31; (37 °C) -1.62 ± 0.24. On the same counts, the results for UUACAGCAAUAUUACGAGGA are -2.24 ± 0.19 and -0.838 ± 0.15. For AUUUAGCAAUAUUACGGAUU the same measures were -2.1 ± 0.21 and -0.519 ± 0.2. For GUAUAGCAAUAUUACGUCAU the same measures were -2.03 ± 0.17 and -0.747 ± 0.17. With UAGGAGCAAUAUUACGAGUG, the “self-splicing fitness (ln)” value (30 °C) was -3.74 ± 0.33 and the “self-splicing fitness (ln)” value (37 °C) is -1.43 ± 0.17.

In the case of CUUAAGCAAUAUUACGACUU, the “self-splicing fitness (ln)” value (30 °C) was -4.36 ± 0.32 and the “self-splicing fitness (ln)” value (37 °C) is -1.74 ± 0.21.

For the sequence GAUCAGCAAUAUUACGGGCU, the “self-splicing fitness (ln)” value reads like this: (30 °C) -1.98 ± 0.085; (37 °C) -1.4 ± 0.1.
